Where two headings read alike, the source gives them in different places.
Key:
[1] = molecular target: T1, EGFR (Homo sapiens, UniProt P00533); assay: Phage ELISA whole-cell binding, A431 cells; conditions: for Calculated binding (EC50): A431 whole cell suspension, Abs450, Table 10; for Calculated binding (EC50) / ligand binding, from the binding curves: phage-displayed ligand; for binding properties relative to WVS and WVS-R41DL47G / ligand binding, from the binding curves: A431 cells; for binding properties relative to WVS and WVS-R41DL47G / Calculated binding (EC50) in A431 cells: phage fusion
T1 construct: host or cells: A431 human epidermoid carcinoma cells, whole-cell suspension
Protocol: A431 cells for EGFR binding or T47D cells for HER3 binding were grown as monolayers in tissue culture flasks in media containing fetal bovine serum. Cells were trypsinized, neutralized with growth medium, washed twice with DPBS and resuspended in ice-cold PBS-Glu-T. 105 cells were transferred to 96 well plates and incubated on ice for 1 hour in the presence of varied concentrations of phage. Cells were centrifuged and washed 5× with PBS-T then incubated for one hour at room temperature with anti-M13 pVIII coat protein antibody conjugated with horseradish peroxidase (HRP). Cells again centrifuged and washed 5× with PGS-T. Color developed with TMP followed by H2SO4. Cells pelleted and supernatant transferred to optically transparent plate for measurement of absorbance at 450 nm. […]
The human epidermoid carcinoma line, A431, were obtained from ATCC. Stock cultures of A-431 were propagated in DMEM medium containing 10% fetal bovine serum. A431 cells were used to evaluate EGFR receptor binding.
(§1) The phage fusion ligand variants were then evaluated for binding using the assay described herein in both A431 cells (to investigate EGFR binding) and T47D cells (to investigate HER3 receptor binding) and EC50s were calculated.

[2] = molecular target: T2, Her-3 (Homo sapiens, UniProt P21860); assay: Phage ELISA whole-cell binding, T47D cells; design: host or cells: T47D human ductal carcinoma cells, whole-cell suspension; conditions: for binding properties relative to WVS and WVS-R41DL47G / Calculated binding (EC50) in T47D cells: phage fusion
T2 sequence (P21860 20-1342): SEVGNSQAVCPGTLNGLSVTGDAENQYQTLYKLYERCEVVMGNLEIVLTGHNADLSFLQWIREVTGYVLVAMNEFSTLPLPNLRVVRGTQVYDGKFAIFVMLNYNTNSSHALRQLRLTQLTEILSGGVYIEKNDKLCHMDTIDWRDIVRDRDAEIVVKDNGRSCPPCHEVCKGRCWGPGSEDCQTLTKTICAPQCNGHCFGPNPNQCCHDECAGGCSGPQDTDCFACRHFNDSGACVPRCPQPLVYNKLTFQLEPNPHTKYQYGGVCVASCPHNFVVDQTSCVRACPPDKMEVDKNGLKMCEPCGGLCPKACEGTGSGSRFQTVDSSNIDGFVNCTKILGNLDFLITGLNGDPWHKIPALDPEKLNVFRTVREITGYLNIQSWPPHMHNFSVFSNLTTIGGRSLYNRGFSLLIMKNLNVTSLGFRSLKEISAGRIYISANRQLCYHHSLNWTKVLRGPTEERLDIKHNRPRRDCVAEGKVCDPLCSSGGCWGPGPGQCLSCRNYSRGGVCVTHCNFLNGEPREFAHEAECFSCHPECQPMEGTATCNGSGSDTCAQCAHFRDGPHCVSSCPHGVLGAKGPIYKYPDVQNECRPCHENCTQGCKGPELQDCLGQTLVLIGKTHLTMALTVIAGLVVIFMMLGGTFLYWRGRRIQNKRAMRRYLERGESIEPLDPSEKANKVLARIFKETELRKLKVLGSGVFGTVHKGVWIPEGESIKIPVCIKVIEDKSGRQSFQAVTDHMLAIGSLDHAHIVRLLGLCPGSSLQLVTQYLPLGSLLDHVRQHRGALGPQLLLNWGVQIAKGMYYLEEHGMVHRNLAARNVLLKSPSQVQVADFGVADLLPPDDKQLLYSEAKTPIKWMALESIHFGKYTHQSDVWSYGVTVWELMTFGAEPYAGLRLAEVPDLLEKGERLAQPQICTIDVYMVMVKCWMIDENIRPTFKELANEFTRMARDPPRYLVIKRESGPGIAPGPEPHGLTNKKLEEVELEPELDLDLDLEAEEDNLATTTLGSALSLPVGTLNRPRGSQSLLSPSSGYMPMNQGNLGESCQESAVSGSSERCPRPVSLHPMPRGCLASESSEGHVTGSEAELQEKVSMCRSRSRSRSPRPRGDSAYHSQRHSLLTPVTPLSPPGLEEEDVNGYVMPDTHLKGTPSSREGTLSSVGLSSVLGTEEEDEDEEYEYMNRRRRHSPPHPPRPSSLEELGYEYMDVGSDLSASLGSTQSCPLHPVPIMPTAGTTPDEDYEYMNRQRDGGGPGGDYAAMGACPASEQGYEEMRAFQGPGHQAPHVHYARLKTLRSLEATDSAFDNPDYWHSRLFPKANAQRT
Protocol: (§2) A431 cells for EGFR binding or T47D cells for HER3 binding were grown as monolayers in tissue culture flasks in media containing fetal bovine serum. Cells were trypsinized, neutralized with growth medium, washed twice with DPBS and resuspended in ice-cold PBS-Glu-T. 105 cells were transferred to 96 well plates and incubated on ice for 1 hour in the presence of varied concentrations of phage. Cells were centrifuged and washed 5× with PBS-T then incubated for one hour at room temperature with anti-M13 pVIII coat protein antibody conjugated with horseradish peroxidase (HRP). Cells again centrifuged and washed 5× with PGS-T. Color developed with TMP followed by H2SO4. Cells pelleted and supernatant transferred to optically transparent plate for measurement of absorbance at 450 nm.
(§3) Theoretical estimates were also performed. “N.D.” indicates not determined. […]
Human ductal carcinoma cells were obtained from ATCC. They were maintained in RPMI 1640 medium with 2 mM L-glutamine adjusted to contain 1.5 g/L sodium bicarbonate, 4.5 g/L glucose, 10 mM HEPES, and 1.0 mM sodium pyruvate and supplemented with 0.2 Units/ml bovine insulin, 90%; fetal bovine serum, 10%. T47-D cells were used to evaluate HER3 receptor binding.
as §1

[3] = test system: HER5 cells; conditions: cited from earlier work; for stimulation of cell proliferation in EGFR-dependent HER5 cells: isolated ligand variants, previously demonstrated
[4] = test system: MCF-7 cells; conditions: cited from earlier work
[5] = test system: HER3 receptor; assay: Phage ELISA whole-cell binding, T47D cells; design: species or system human; conditions: A431 (EGFR) versus T47D (HER3) binding, phage fusion
Protocol: as §2, §3
Human ductal carcinoma cells were obtained from ATCC. They were maintained in RPMI 1640 medium with 2 mM L-glutamine adjusted to contain 1.5 g/L sodium bicarbonate, 4.5 g/L glucose, 10 mM HEPES, and 1.0 mM sodium pyruvate and supplemented with 0.2 Units/ml bovine insulin, 90%; fetal bovine serum, 10%. […]
as §1

[6] = molecular target: T2, Her-3; conditions: particularly for Her-3; cited from earlier work
[7] = isolated ligand variants, previously demonstrated
[8] = T47D whole cell suspension, phage-displayed ligand, Abs450

Substance	Calculated binding (EC50) [1]	Calculated binding (EC50) in A431 cells ([1]; Table 15, second half loop)	Calculated binding (EC50) in T47D cells ([2]; Table 15, second half loop)	stimulation of cell proliferation in EGFR-dependent HER5 cells [3]	Estimated binding (EC50) [2, 8]	Calculated binding (EC50) in A431 cells ([1]; Table 14, first half loop)	Calculated binding (EC50) in T47D cells ([2]; Table 14, first half loop)	also measured
wvs-L47G: WVS background, L at position 47 replaced by G; SEQ ID NO 7 (NWVSECPLSHDGYCLHDGVCMYIEALDKYACNCVVGYIGERCQYRDGKWWELR; Ligand Variant)	6.6 × 10^10 phage titer/mL	–	–	–	–	–	–	–
D4: WVS background, B-loop MYIEAYRVKT (second half YRVKT); SEQ ID 42 (Ligand Variant)	–	3.9 × 10^9 phage titer/mL	2.9 × 10^10 phage titer/mL	–	–	–	–	binding properties relative to WVS and WVS-R41DL47G [1]: intermediate binding properties; binding properties relative to WVS and WVS-R41DL47G ([2]; T47D cells): intermediate binding properties
BiR: heregulin/EGF chimera, amino terminal residues NSDSE replaced with heregulin SHLVK; SEQ ID NO 2 (SHLVKCPLSHDGYCLHDGVCMYIEALDKYACNCVVGYIGERCQYRDLKWWELR; Ligand Variant)	–	–	–	capable of stimulating cell proliferation	–	–	–	stimulation of HER5 cells ([3]; stated as known): can be stimulated; stimulation of MCF-7 cells [4, 7]: very weakly; stimulation of MCF-7 cells ([4]; stated as known): can be stimulated
wvs-R41D: WVS background, R at position 41 replaced by D; SEQ ID NO 6 (NWVSECPLSHDGYCLHDGVCMYIEALDKYACNCVVGYIGEDCQYRDLKWWELR; Ligand Variant)	5.8 × 10^11 phage titer/mL	–	–	–	>1 × 10^12 phage titer/mL	–	–	ligand binding, from the binding curves [1]: greatly attenuated
T1E: EGF/TGFα chimera, amino terminal residues NSDSE replaced with VVSHFND from TGF-α; SEQ ID NO 4 (VVSHFNDCPLSHDGYCLHDGVCMYIEALDKYACNCVVGYIGERCQYRDLKWWELR; Ligand Variant) [reference compound]	–	–	–	capable of stimulating cell proliferation	1 × 10^10 phage titer/mL	–	–	–
E8: WVS background, B-loop MYIEATKYRG (second half TKYRG); SEQ ID 44 (Ligand Variant)	–	5.2 × 10^9 phage titer/mL	3.1 × 10^10 phage titer/mL	–	–	–	–	binding properties relative to WVS and WVS-R41DL47G [1]: intermediate binding properties; binding properties relative to WVS and WVS-R41DL47G ([2]; T47D cells): intermediate binding properties
D4-2: WVS background, B-loop YRVKTLDKYA (first half YRVKT); SEQ ID 43 (Ligand Variant)	–	–	–	–	–	3.6 × 10^10 phage titer/mL	8.6 × 10^10 phage titer/mL	receptor binding selectivity [5]: bind only the HER3 receptor
wvs-R41DL47G: WVS background, R at position 41 replaced by D, L at position 47 replaced by G; SEQ ID NO 5 (NWVSECPLSHDGYCLHDGVCMYIEALDKYACNCVVGYIGEDCQYRDGKWWELR; Ligand Variant)	4.8 × 10^12 phage titer/mL	4.0 × 10^10 phage titer/mL	2.6 × 10^11 phage titer/mL	–	–	2.8 × 10^10 phage titer/mL	1.1 × 10^12 phage titer/mL	ligand binding, from the binding curves [1]: greatly attenuated; ligand binding, from the binding curves ([2]; T47D cells, phage-displayed ligand): greatly attenuated
WVS: EGF variant, amino acids 2 and 3 replaced with W and V, N-terminus NWVSE; SEQ ID NO 3 (NWVSECPLSHDGYCLHDGVCMYIEALDKYACNCVVGYIGERCQYRDLKWWELR; Ligand Variant) [reference compound]	6.6 × 10^8 phage titer/mL	1.4 × 10^9 phage titer/mL	7.6 × 10^9 phage titer/mL	capable of stimulating cell proliferation	9 × 10^8 phage titer/mL	1.9 × 10^9 phage titer/mL	7.5 × 10^9 phage titer/mL	stimulation of MCF-7 cells [4, 7]: stimulated most effectively; binding affinity [6]: high binding affinity; Calculated binding (EC50) ([2]; T47D whole cell suspension, phage-displayed ligand, Abs450, Table 9): 9.8 × 10^9 phage titer/mL
